{"source": "patent US11358994B2", "about": "“Fatty acid modified human epidermal growth factor” (Saint Louis University, priority 2017, dated 2022)", "origin": "cited, not measured here", "details": "species not stated", "data": [{"substance": "hEGF: 6 kD protein made of 53 amino acids (SEQ ID NO: 1)", "values": [{"measurement": "half-life in vivo", "value": "~2", "unit": "min"}]}]}
